Measurements taken from patent publication WO2013005649A1 (dated 2013).
Non-standard residues stand in square brackets, D forms with d. No end group written: not given here. sY = N[C@@H](Cc1ccc(OS(=O)(=O)O)cc1)C(=O)O

T1: synthetic peptide CCR6-1 (1st to 17th amino acids of human CCR6) (human, also: 11 PEG units at the C-terminal side)
T1 construct: also called CCR6-1 peptide
T1 peptide: MSGESMNFSDVFDSSEDC

T2: human CCR6 with C-terminal His tag, on CHO-hCCR6 (isoform1) or U937-CCR6 cells (human, UniProt P51684 1-374)
T2 construct: Expressed from pKANTEX-hCCR6 (isoform1) in CHO/DG44 cells (CHO-hCCR6) and in U937 cells (U937-CCR6); also called hCCR6-His-tag
T2 sequence: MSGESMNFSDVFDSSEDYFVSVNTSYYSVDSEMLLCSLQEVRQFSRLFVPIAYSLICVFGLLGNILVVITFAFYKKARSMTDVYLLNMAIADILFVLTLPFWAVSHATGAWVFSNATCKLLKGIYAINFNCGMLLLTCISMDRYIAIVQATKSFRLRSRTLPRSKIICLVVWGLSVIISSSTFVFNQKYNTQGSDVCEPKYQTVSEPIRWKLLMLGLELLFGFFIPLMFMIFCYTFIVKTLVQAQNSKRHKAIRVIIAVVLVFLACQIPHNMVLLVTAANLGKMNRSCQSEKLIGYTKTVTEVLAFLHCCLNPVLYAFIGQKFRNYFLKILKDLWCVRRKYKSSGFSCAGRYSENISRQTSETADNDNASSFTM

T3: cynomolgus monkey CCR6 (isoform 1, 177Val type) with C-terminal His tag, on CHO-cynomolgus CCR6 cells (cynomolgus monkey, UniProt P51684 1-374 (human entry))
T3 construct: also called mfCCR6
T3 chain: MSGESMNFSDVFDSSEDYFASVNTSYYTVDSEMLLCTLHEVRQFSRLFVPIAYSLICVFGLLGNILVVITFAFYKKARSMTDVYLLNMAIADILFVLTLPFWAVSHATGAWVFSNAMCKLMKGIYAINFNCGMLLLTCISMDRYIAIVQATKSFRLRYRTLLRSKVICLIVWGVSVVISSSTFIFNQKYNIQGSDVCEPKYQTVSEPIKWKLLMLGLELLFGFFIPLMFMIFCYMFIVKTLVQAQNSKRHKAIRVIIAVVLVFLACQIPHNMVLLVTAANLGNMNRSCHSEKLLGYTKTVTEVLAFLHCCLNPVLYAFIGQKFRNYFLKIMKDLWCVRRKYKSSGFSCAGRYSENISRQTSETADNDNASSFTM

T4: synthetic peptide CCR6-3 (20th to 34th amino acids of human CCR6) (human, Cys residue introduced at the N-terminal or C-terminal side)
T4 construct: also called CCR6-3 peptide
T4 peptide: CVSVNTSYYSVDSEML

T5: synthetic peptide CCR6-4 (30th to 46th amino acids of human CCR6) (human, also: 11 PEG units at the N-terminal side)
T5 construct: also called CCR6-4 peptide
T5 peptide: DSEMLLSSLQEVRQFSRC

T6: synthetic peptide CCR6-2S (9th to 23rd amino acids of human CCR6, Tyr18-sulfation) (human)
T6 construct: also called CCR6-2S peptide; P2: CCR6-2S(B)
T6 peptide: CSDVFDSSED[sY]FVSVN

T7: synthetic peptide CCR6-2 (9th to 23rd amino acids of human CCR6) (human, not fully specified)
T7 construct: Not sulfated; also called CCR6-2 peptide; P3: CCR6-2(B)
T7 peptide: CSDVFDSSEDYFVSVN


Key:
[1] = biological target: T1, synthetic peptide CCR6-1 (1st to 17th …); test: binding ELISA on coated peptide
[2] = biological target: T2, human CCR6 with C-terminal His tag, on …; test: flow cytometry on CHO-hCCR6 cells
[3] = biological target: T3, cynomolgus monkey CCR6 (isoform 1, …); test: flow cytometry on CHO-cynomolgus CCR6 cells
[4] = biological target: T4, synthetic peptide CCR6-3 (20th to 34th …); test: binding ELISA on coated peptide
[5] = biological target: T5, synthetic peptide CCR6-4 (30th to 46th …); test: binding ELISA on coated peptide
[6] = biological target: T2, human CCR6 with C-terminal His tag, on …; test: flow cytometry on CHO-hCCR6 cells, 0.0001 to 10 μg/mL antibody
[7] = biological target: T3, cynomolgus monkey CCR6 (isoform 1, …); test: flow cytometry on CHO-cynomolgus CCR6 cells, 0.0001 to 10 μg/mL antibody
[8] = biological target: T8, human CCR6 N-terminal extracellular domain Fc fusion protein NthCCR6-IgG4Fc (human, contains a sulfated Tyr residue; N-linked sugar chains); test: SPR, Biacore T100; NthCCR6-IgG4Fc captured on anti-human IgG CM5 chip, antibody injected
T8 construct: Made in CHO/DG44 cells; also called NthCCR6-Fc; NtCCR6-IgG4Fc
T8 sequence (chain, as listed by the source limits assumed): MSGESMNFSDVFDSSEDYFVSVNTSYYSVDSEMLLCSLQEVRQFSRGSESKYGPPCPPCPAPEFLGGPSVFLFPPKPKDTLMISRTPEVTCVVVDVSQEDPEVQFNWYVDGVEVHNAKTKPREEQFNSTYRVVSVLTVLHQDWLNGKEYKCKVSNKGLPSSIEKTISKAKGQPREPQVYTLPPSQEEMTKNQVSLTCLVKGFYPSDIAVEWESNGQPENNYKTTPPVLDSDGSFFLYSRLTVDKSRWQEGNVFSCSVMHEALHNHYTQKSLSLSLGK

[9] = biological target: T6, synthetic peptide CCR6-2S (9th to 23rd …); test: binding ELISA on coated peptide
[10] = biological target: T7, synthetic peptide CCR6-2 (9th to 23rd …); test: binding ELISA on coated peptide
[11] = biological target: T1, synthetic peptide CCR6-1 (1st to 17th …); test: binding ELISA on coated peptide, 10 μg/mL antibody
[12] = biological target: T6, synthetic peptide CCR6-2S (9th to 23rd …); test: binding ELISA on coated peptide, 10 μg/mL antibody
[13] = biological target: T7, synthetic peptide CCR6-2 (9th to 23rd …); test: binding ELISA on coated peptide, 10 μg/mL antibody

| binding result [1] | binding result [2] | binding result [3] | binding result [4] | binding result [5] | binding result [6] | binding result [7] | Kd [8] | binding result [9] | binding result [10] | binding result [11] | binding result [12] | binding result [13] | Binder |
| --- | --- | --- | --- | --- | --- | --- | --- | --- | --- | --- | --- | --- | --- |
| no binding | binds | binds |  |  |  |  |  |  |  |  |  |  | anti-human CCR6 chimeric antibody KM4592 chimera (antibody, human IgG1, V domains shown) VH: DVQLVESGGGLVQPGGSRKLSCAASGFTFSSFGMHWVRQAPEKGLEWVAYISTGSGSIYYADTVKGRFTISRDNPKNTLFLQMTSLRSEDTAIYYCLKGGDGYYVAAWFAYWGQGTLVTVSA VL: DIVLTQAAPSVSVTPGESVSISCRSSKSLLHTNDNTYLYWFLQRPGQSPQLLIYRMSNLASGVPDRFSGSGSGTAFTLRISRVEAEDVGVYYCMQHLEYPLTFGAGTKLELK |
| no binding (tested: 10 μg/mL) |  |  | no binding (tested: 10 μg/mL) | no binding (tested: 10 μg/mL) | binds | binds | 0.38 nM |  |  |  |  |  | anti-human CCR6 mouse monoclonal antibody KM4592 (antibody, V domains shown) VH: DVQLVESGGGLVQPGGSRKLSCAASGFTFSSFGMHWVRQAPEKGLEWVAYISTGSGSIYYADTVKGRFTISRDNPKNTLFLQMTSLRSEDTAIYYCLKGGDGYYVAAWFAYWGQGTLVTVSA VL: DIVLTQAAPSVSVTPGESVSISCRSSKSLLHTNDNTYLYWFLQRPGQSPQLLIYRMSNLASGVPDRFSGSGSGTAFTLRISRVEAEDVGVYYCMQHLEYPLTFGAGTKLELK |
| binds | binds | binds |  |  |  |  |  | binds | binds |  |  |  | anti-human CCR6 chimeric antibody KM4705 chimera (antibody, human IgG1, V domains shown) VH: EVQLVETGGGLVQPKGSLKLSCAASGFSFKTNAMNWVRQAPGKGLEWVARIRSKINNYATYYADSVKDRFTISRDDSQSMLYLQMNNLKTEDTAMYYCVSDHYGYGAVDYWGQGTSVTVSS VL: DIQMNQSPSSLSASLGDTITITCRASQNINIWLSWYQQKPGSIPKLLIYKASNLHTGVSSRFSGSGYGTDFTLTISSLQPEDIATYYCLQGRSYPLTFGGGTNLEIK |
|  |  |  | no binding (tested: 10 μg/mL) | no binding (tested: 10 μg/mL) | binds | binds | 6.52 nM |  |  | binds | binds | binds | anti-human CCR6 mouse monoclonal antibody KM4705 (antibody, mouse IgG2b, V domains shown) VH: EVQLVETGGGLVQPKGSLKLSCAASGFSFKTNAMNWVRQAPGKGLEWVARIRSKINNYATYYADSVKDRFTISRDDSQSMLYLQMNNLKTEDTAMYYCVSDHYGYGAVDYWGQGTSVTVSS VL: DIQMNQSPSSLSASLGDTITITCRASQNINIWLSWYQQKPGSIPKLLIYKASNLHTGVSSRFSGSGYGTDFTLTISSLQPEDIATYYCLQGRSYPLTFGGGTNLEIK |
| no binding | binds | binds |  |  |  |  |  |  |  |  |  |  | anti-human CCR6 chimeric antibody KM4703 chimera (antibody, human IgG1, V domains shown) VH: QVQMKETGPGLVQPTQTLSLTCTVSGFSLTSSRVHWVRQPPGKGLEWMGVIYYDGKTDYNATLKSRLSISRDTSKSQVFLKINSLQTDDTAMYYCAGGVIMDAWGQGASVTVSP VL: DVLMTQIPVSLPVSLGGQVAISCRSSQSLVHTDGNTYLHWYLQKPGQSPQLLIYRVSNRFSGVPDRFSGSGSGTDFTLKISRVEPEDLGVYYCSQRTYFPLTFGSGTKLEIK |
| no binding | binds | binds |  |  |  |  |  |  |  |  |  |  | anti-human CCR6 chimeric antibody KM4704 chimera (antibody, human IgG1, V domains shown) VH: EVQLQESGPGLVKPSQSLSLTCSVTGYSITSNYWGWIRKFPGNKMEWMGYTSSSGSTSYNPYLKSRISITRDTSKNQFFLKLNSVTTEDTATYYCTGGYVMDAWGQGASVTVSS VL: DVLMTQTPVSLPVSLGGQVSISCRSSQSLVHSDGNTYLHWYLQKPGQSPQLLIYRVSNRFSGVPDRFSGSGSGTDFTLKISRVEPEDLGVYYCLQRTYVPWTFGGGTKLDLK |
| no binding (tested: 10 μg/mL) |  |  | no binding (tested: 10 μg/mL) | no binding (tested: 10 μg/mL) | binds | binds | 0.67 nM |  |  |  |  |  | anti-human CCR6 rat monoclonal antibody KM4704 (antibody, rat IgG2b, V domains shown) VH: EVQLQESGPGLVKPSQSLSLTCSVTGYSITSNYWGWIRKFPGNKMEWMGYTSSSGSTSYNPYLKSRISITRDTSKNQFFLKLNSVTTEDTATYYCTGGYVMDAWGQGASVTVSS VL: DVLMTQTPVSLPVSLGGQVSISCRSSQSLVHSDGNTYLHWYLQKPGQSPQLLIYRVSNRFSGVPDRFSGSGSGTDFTLKISRVEPEDLGVYYCLQRTYVPWTFGGGTKLDLK |
| no binding (tested: 10 μg/mL) |  |  | no binding (tested: 10 μg/mL) | no binding (tested: 10 μg/mL) | binds | binds | 1.15 nM |  |  |  |  |  | anti-human CCR6 rat monoclonal antibody KM4703 (antibody, rat IgG2b, V domains shown) VH: QVQMKETGPGLVQPTQTLSLTCTVSGFSLTSSRVHWVRQPPGKGLEWMGVIYYDGKTDYNATLKSRLSISRDTSKSQVFLKINSLQTDDTAMYYCAGGVIMDAWGQGASVTVSP VL: DVLMTQIPVSLPVSLGGQVAISCRSSQSLVHTDGNTYLHWYLQKPGQSPQLLIYRVSNRFSGVPDRFSGSGSGTDFTLKISRVEPEDLGVYYCSQRTYFPLTFGSGTKLEIK |
